This note sets out measurements from US8535684.

In this assay the target is Nedd4 on the surface of virus-infected MDCK cells (canine (MDCK cells)). Kind of assay: cell-based or functional assay.

Human Nedd4 antibody Ab101AP came in with an inhibition of viral replication (ADCC mediated, in vitro) of 80 % inhibition.

Human Nedd4 antibody Ab27979 registered an inhibition of viral replication (ADCC mediated, in vitro) of 80 % inhibition.
